Literature values, collected in PMC9686918.

Molecular target: myeloperoxidase (Homo sapiens) (UniProt P05164)
Sequence (P05164 165-273): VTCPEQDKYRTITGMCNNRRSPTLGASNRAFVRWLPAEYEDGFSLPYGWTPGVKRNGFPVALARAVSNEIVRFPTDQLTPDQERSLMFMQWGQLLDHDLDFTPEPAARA

In the case of “human serum albumin (from UniProt P02768)”, the Kd is listed as 20 µM.
